Target: mitochondrial heat shock protein 60 V72I (mtHsp60^V72I) (human) (UniProt P10809)

steady-state ATPase activity of mtHsp60^V72I (500 nM monomer) against mtHsp10 (twofold series from 10 µM monomer); ~21 pmol ATP per min without mtHsp10: 31 pmol/min
Substance: mtHsp10 (from UniProt P61604 1-102) (natural protein)

Reference: PMC11638070
